Source: patent US20260355338 (published 2026)
Numbering of substitutions follows the chain as printed. One block for each binder: values may come before it.

Biological target: T1, human EpCAM-mFc (human)
T1 chain: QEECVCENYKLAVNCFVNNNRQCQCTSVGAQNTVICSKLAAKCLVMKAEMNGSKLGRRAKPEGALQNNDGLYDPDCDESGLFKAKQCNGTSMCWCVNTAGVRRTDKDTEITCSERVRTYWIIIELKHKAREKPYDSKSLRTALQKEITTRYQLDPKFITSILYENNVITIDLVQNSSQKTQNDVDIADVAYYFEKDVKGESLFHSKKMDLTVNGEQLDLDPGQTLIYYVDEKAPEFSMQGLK
Test: ELISA

B1: EP101-3014 (1565-Y) (antibody)
chain 1: QVQLVQSGAEVKKPGASVKVSCKASGYTFTNYYIHWVRQAPGQRLEYIGWIYPGNVYIQYNEKFKGRATLTADKSASTAYMELSSLRSEDTAVYYCARDGYWFAYWGQGTLVTVSS
chain 2: QGQSGQGSWCHSATDTILPCSNGGGSSGGAVGLLAPPGGLSGRSDNIGGSDIVLTQTPLSLSVTPGQPASISCRSSRSLLHSDGFTYLYWFLQKPGQSPQLLIYQTSNLASGVPDRFSSSGSGTDFTLKISRVEAEDVGVYYCAQNLELPNTFGQGTKLEIK
Kd: 389 nM

B3: EP107-3-3014 (1361-H) (antibody)
chain 1: B1 chain 1 with Y33H, Y101P
chain 2: QGQSGQGSLPCSYMHPYCFYNSGGGSSGGAVGLLAPPGGLSGRSDNIGGSDIVLTQTPLSLSVTPGQPASISCRSSRSLLHSDGFTYLYWFLQKPGQSPQLLIYQTSNLASGVPDRFSSSGSGTDFTLKISRVEAEDVGVYYCAQNLELPNTFGQGTKLEIK
Kd: 44 nM

B4: EP11-3014 (1361-H) (antibody)
chain 1: B1 chain 1 with Y33H, Y101P
chain 2: QGQSGQGFICPTLYDRPHCMHTGGGSSGGAVGLLAPPGGLSGRSDNIGGSDIVLTQTPLSLSVTPGQPASISCRSSRSLLHSDGFTYLYWFLQKPGQSPQLLIYQTSNLASGVPDRFSSSGSGTDFTLKISRVEAEDVGVYYCAQNLELPNTFGQGTKLEIK
Kd: 30.5 nM

B6: EP01-3014 (1361-H) (antibody)
chain 1: B1 chain 1 with Y33H, Y101P
chain 2: QGQSGQGPLMTCSDYYTCKNNLGGGSSGGAVGLLAPPGGLSGRSDNIGGSDIVLTQTPLSLSVTPGQPASISCRSSRSLLHSDGFTYLYWFLQKPGQSPQLLIYQTSNLASGVPDRFSSSGSGTDFTLKISRVEAEDVGVYYCAQNLELPNTFGQGTKLEIK
Kd: 18.2 nM

B7: EP05-3014 (1361-H) (antibody)
chain 1: B1 chain 1 with Y33H, Y101P
chain 2: QGQSGQGWWPPCQGGAWCEQRIGGGSSGGAVGLLAPPGGLSGRSDNIGGSDIVLTQTPLSLSVTPGQPASISCRSSRSLLHSDGFTYLYWFLQKPGQSPQLLIYQTSNLASGVPDRFSSSGSGTDFTLKISRVEAEDVGVYYCAQNLELPNTFGQGTKLEIK
Kd: 0.46 nM

B8: EP05-3014 (1565-Y) (antibody)
chain 1: B1 chain 1
chain 2: B7 chain 2
Kd: 8.6 nM

B9: EP110-3014 (1361-H) (antibody)
chain 1: B1 chain 1 with Y33H, Y101P
chain 2: QGQSGQGPRPHCAILRQCLAATGGGSSGGAVGLLAPPGGLSGRSDNIGGSDIVLTQTPLSLSVTPGQPASISCRSSRSLLHSDGFTYLYWFLQKPGQSPQLLIYQTSNLASGVPDRFSSSGSGTDFTLKISRVEAEDVGVYYCAQNLELPNTFGQGTKLEIK
Kd: 336 nM

B10: EP105-3014 (1361-H) (antibody)
chain 1: B1 chain 1 with Y33H, Y101P
chain 2: QGQSGQGDCTGYSPSVLPACRVGGGSSGGAVGLLAPPGGLSGRSDNIGGSDIVLTQTPLSLSVTPGQPASISCRSSRSLLHSDGFTYLYWFLQKPGQSPQLLIYQTSNLASGVPDRFSSSGSGTDFTLKISRVEAEDVGVYYCAQNLELPNTFGQGTKLEIK
Kd: 201 nM

B13: EP106-3014 (1361-H) (antibody)
chain 1: B1 chain 1 with Y33H, Y101P
chain 2: B10 chain 2 with D8F, T10S, A19S, R21L, V22M
Kd: 348 nM

B15: EP11-3014 (1565-Y) (antibody)
chain 1: B1 chain 1
chain 2: B4 chain 2
Kd: 38 nM

B16: EP01-3014 (1565-Y) (antibody)
chain 1: B1 chain 1
chain 2: B6 chain 2
Kd: 0.66 nM

B17: EP04-3014 (1565-Y) (antibody)
chain 1: B1 chain 1
chain 2: QGQSGQGWCPRLFDRPSMGCPTGGGSSGGAVGLLAPPGGLSGRSDNIGGSDIVLTQTPLSLSVTPGQPASISCRSSRSLLHSDGFTYLYWFLQKPGQSPQLLIYQTSNLASGVPDRFSSSGSGTDFTLKISRVEAEDVGVYYCAQNLELPNTFGQGTKLEIK
Kd: 26.9 nM

B18: EP03-3014 (1361-H) (antibody)
chain 1: B1 chain 1 with Y33H, Y101P
chain 2: B1 chain 2 with S8H, W9Y, A13R, L18T, P19H, S21N, N22A
Kd: 4 nM

B20: EP102-3014 (1565-Y) (antibody)
chain 1: B1 chain 1
chain 2: QGQSGQGSPACSDRYYQTCVLNGGGSSGGAVGLLAPPGGLSGRSDNIGGSDIVLTQTPLSLSVTPGQPASISCRSSRSLLHSDGFTYLYWFLQKPGQSPQLLIYQTSNLASGVPDRFSSSGSGTDFTLKISRVEAEDVGVYYCAQNLELPNTFGQGTKLEIK
Kd: 72.5 nM

B21: EP103-3014 (1565-Y) (antibody)
chain 1: B1 chain 1
chain 2: QGQSGQGMSCVVDRFDRQCPHLGGGSSGGAVGLLAPPGGLSGRSDNIGGSDIVLTQTPLSLSVTPGQPASISCRSSRSLLHSDGFTYLYWFLQKPGQSPQLLIYQTSNLASGVPDRFSSSGSGTDFTLKISRVEAEDVGVYYCAQNLELPNTFGQGTKLEIK
Kd: 140 nM

Other lines, results leading:

Kd: 64.4 nM
B2: EP03-3014 (1565-Y) (antibody)
chain 1: B1 chain 1
chain 2: B1 chain 2 with S8H, W9Y, A13R, L18T, P19H, S21N, N22A

Kd: 0.44 nM
B5: EP02-3014 (1361-H) (antibody)
chain 1: B1 chain 1 with Y33H, Y101P
chain 2: B21 chain 2 with M8L, V11T, V12H, D13S, F15Y, R17M, Q18H, L22M

Kd: 512 nM
B11: EP109-3014 (1361-H) (antibody)
chain 1: B1 chain 1 with Y33H, Y101P
chain 2: QGQSGQGPNTCMSERRICSLTYGGGSSGGAVGLLAPPGGLSGRSDNIGGSDIVLTQTPLSLSVTPGQPASISCRSSRSLLHSDGFTYLYWFLQKPGQSPQLLIYQTSNLASGVPDRFSSSGSGTDFTLKISRVEAEDVGVYYCAQNLELPNTFGQGTKLEIK

Kd: 1.5 nM
B12: EP07-3014 (1361-H) (antibody)
chain 1: B1 chain 1 with Y33H, Y101P
chain 2: QGQSGQGHSGCPRLFDRCSAPAGGGSSGGAVGLLAPPGGLSGRSDNIGGSDIVLTQTPLSLSVTPGQPASISCRSSRSLLHSDGFTYLYWFLQKPGQSPQLLIYQTSNLASGVPDRFSSSGSGTDFTLKISRVEAEDVGVYYCAQNLELPNTFGQGTKLEIK

Kd: 58 nM
B14: EP108-3014 (1361-H) (antibody)
chain 1: B1 chain 1 with Y33H, Y101P
chain 2: B3 chain 2 with S8L, L9T, P10R, S12T, Y13I, M14A, F19Y, S22Y

Kd: 44 nM
B19: EP107-2-3014 (1361-H) (antibody)
chain 1: B1 chain 1 with Y33H, Y101P
chain 2: B3 chain 2 with L9H

Kd: 34.5 nM
B22: EP02-3014 (1565-Y) (antibody)
chain 1: B1 chain 1
chain 2: B21 chain 2 with M8L, V11T, V12H, D13S, F15Y, R17M, Q18H, L22M

Kd: 126 nM
B23: EP104-3014 (1565-Y) (antibody)
chain 1: B1 chain 1
chain 2: QGQSGQGTTRCEHYWFTCPLSPGGGSSGGAVGLLAPPGGLSGRSDNIGGSDIVLTQTPLSLSVTPGQPASISCRSSRSLLHSDGFTYLYWFLQKPGQSPQLLIYQTSNLASGVPDRFSSSGSGTDFTLKISRVEAEDVGVYYCAQNLELPNTFGQGTKLEIK

Kd: 31 nM
B24: EP107-1-3014 (1361-H) (antibody)
chain 1: B1 chain 1 with Y33H, Y101P
chain 2: B3 chain 2 with L9R
